Test [1] addresses T1, human nectin-2δ G113R (human, UniProt Q92692 32-538).
T1 construct: transient on CHO-K1
T1 sequence: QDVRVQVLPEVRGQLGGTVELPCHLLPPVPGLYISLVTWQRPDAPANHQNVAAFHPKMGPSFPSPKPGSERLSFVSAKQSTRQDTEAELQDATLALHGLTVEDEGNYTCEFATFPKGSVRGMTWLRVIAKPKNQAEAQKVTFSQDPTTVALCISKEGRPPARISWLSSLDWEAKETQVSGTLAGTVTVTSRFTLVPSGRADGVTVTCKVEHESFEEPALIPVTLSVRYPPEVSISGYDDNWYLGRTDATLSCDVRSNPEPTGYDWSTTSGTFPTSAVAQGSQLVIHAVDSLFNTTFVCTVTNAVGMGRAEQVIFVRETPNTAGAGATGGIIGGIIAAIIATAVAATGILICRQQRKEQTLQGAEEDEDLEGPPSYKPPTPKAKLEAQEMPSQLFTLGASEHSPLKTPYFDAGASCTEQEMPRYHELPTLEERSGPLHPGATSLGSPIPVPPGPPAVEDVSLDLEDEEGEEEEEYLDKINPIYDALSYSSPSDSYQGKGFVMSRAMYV
Briefly: FCM, CHO-K1 transient.
Description: (§1) After these cells were further washed twice with FCM buffer and then resuspended in 250 μL of FCM buffer, fluorescence intensity of the stained cells was measured by the flow cytometer MPL500 (BECKMAN COULTER). A ratio of the median value of fluorescence intensities of negative control plasmid pcDNA3.1(+)-transfected CHO-K1 cells to the median value of fluorescence intensities of each gene-transfected CHO-K1 cells was calculated for each antibody.
(§2) Then, after 200 μL of FCM buffer was added to each well and washed once by centrifugal operation, 50 μL of Alexa Fluor488 goat anti-human IgG (H+L) diluted in FCM buffer to 10 μg/mL was added thereto for suspension, and the mixture was then reacted on ice for an hour. Next, the cells were washed twice with FCM buffer and resuspended in 250 μL of FCM buffer.

Test [2] addresses T2, human nectin-2δ AN77-78PD (human, UniProt Q92692 32-538).
T2 construct: transient on CHO-K1
T2 sequence: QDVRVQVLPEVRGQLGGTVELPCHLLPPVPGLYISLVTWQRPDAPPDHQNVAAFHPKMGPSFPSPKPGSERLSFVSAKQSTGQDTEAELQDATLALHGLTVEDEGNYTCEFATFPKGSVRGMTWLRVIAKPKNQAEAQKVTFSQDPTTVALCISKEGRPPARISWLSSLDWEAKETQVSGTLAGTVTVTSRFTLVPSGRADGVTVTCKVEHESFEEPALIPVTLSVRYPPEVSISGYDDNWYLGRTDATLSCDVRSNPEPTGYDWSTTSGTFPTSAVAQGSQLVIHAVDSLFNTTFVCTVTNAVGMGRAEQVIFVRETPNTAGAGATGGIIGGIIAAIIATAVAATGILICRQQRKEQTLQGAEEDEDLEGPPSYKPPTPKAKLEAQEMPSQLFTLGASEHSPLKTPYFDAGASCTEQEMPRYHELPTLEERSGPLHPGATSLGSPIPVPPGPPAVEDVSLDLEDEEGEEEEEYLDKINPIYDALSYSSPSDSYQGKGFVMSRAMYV
As to the kind of experiment: FCM, CHO-K1 transient.
Description: as §1, §2

For test [3], the target named is T3, human nectin-2δ H128R (human, UniProt Q92692 32-538).
T3 construct: transient on CHO-K1
T3 sequence: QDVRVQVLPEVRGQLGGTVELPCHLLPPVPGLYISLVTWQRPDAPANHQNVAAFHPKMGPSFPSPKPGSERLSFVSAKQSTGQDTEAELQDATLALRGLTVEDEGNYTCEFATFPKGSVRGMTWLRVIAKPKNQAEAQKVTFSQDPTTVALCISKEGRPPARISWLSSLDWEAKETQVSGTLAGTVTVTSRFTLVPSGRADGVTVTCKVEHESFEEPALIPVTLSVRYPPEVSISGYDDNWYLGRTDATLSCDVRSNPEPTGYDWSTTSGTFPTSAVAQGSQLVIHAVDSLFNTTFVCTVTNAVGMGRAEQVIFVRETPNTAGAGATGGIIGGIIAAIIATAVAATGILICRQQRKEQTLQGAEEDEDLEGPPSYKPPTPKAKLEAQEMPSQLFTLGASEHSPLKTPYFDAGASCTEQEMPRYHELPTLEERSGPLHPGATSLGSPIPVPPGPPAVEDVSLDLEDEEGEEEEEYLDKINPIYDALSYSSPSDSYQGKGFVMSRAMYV
As to the kind of experiment: FCM, CHO-K1 transient.
Description: as §1, §2

Test [4] has as its target T4, nectin-2 Ig2 domain-deficient protein (human, UniProt Q92692 32-538).
T4 construct: also called delta-Ig2; Nectin-2ΔIg2
T4 sequence: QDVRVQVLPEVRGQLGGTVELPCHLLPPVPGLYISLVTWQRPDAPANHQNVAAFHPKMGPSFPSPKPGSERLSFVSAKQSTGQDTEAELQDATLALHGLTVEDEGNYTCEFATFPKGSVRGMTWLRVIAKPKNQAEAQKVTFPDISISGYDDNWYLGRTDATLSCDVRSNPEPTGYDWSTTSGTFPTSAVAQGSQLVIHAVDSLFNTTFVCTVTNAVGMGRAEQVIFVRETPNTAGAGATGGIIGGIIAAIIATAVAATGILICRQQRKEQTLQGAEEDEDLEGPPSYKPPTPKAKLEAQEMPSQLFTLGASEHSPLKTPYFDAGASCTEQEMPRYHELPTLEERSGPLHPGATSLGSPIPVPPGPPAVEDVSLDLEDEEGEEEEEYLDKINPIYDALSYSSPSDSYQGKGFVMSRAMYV
As to the kind of experiment: FCM.
Description: After 200 μL of FCM buffer was added to each well and washed once by centrifugal operation, 50 μL each of Alexa488-labeled secondary antibody diluted in FCM buffer to 10 μg/mL was added to and mixed therewith, and the mixture was then reacted on ice for an hour. The Alexa488-labeled secondary antibody used was Alexa Fluor488 goat anti-human IgG (H+L) for the human antibodies and Alexa Fluor488 goat anti-rabbit IgG (H+L) (Invitrogen) for the rabbit antibody. The cells in each well were washed twice with FCM buffer and then resuspended in 250 μL of FCM buffer. Using the flow cytometer MPL500 (BECKMAN COULTER), the fluorescence intensity of stained cells was measured to determine the ratio of the median value of fluorescence intensities of the respective antibodies in the primary antibody group to the median value of fluorescence intensities in the negative control group.

For test [5], the target named is T5, human nectin-2δ protein (human, UniProt Q92692 32-538).
T5 construct: full length, stably on CHO-K1 (43-2) or transiently on CHO-K1 from pEE12.4-Nectin-2δ
T5 sequence: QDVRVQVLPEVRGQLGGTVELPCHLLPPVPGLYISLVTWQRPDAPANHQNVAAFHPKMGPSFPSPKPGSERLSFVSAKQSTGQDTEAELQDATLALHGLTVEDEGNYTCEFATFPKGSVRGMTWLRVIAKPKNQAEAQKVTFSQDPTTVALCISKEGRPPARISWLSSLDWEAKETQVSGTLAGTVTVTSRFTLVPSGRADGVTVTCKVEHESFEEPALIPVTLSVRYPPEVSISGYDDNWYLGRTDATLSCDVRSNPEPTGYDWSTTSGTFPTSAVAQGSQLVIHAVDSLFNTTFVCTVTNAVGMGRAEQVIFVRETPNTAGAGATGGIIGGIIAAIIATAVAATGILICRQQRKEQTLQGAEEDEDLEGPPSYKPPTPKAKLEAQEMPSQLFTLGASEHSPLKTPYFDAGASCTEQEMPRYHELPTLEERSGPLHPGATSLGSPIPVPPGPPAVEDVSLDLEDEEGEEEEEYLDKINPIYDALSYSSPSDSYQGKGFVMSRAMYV
As to the kind of experiment: FCM, CHO-K1 transient.
Description: (§3) A ratio of the median value of fluorescence intensities of negative control plasmid pcDNA3.1(+)-transfected CHO-K1 cells to the median value of fluorescence intensities of each gene-transfected CHO-K1 cells was calculated for each antibody.
(§4) Then, after 200 μL of FCM buffer was added to each well and washed once by centrifugal operation, 50 μL each of Alexa488-labeled secondary antibody diluted in FCM buffer to 10 μg/mL was added thereto for suspension, and the mixture was then reacted on ice for an hour. As secondary antibodies, Alexa Fluor488 goat anti-human IgG (H+L) was used for the human antibodies and Alexa Fluor488 goat anti-rabbit IgG (H+L) (Invitrogen) was used for the rabbit antibody, respectively. Next, the cells were washed twice with FCM buffer and then resuspended in 250 μL of FCM buffer.

Test [6] has as its target T6, cynomolgus monkey nectin-2 protein (cynomolgus monkey, UniProt Q92692 32-538 (human entry)).
T6 construct: transient on CHO-K1; also called maNectin-2
T6 chain: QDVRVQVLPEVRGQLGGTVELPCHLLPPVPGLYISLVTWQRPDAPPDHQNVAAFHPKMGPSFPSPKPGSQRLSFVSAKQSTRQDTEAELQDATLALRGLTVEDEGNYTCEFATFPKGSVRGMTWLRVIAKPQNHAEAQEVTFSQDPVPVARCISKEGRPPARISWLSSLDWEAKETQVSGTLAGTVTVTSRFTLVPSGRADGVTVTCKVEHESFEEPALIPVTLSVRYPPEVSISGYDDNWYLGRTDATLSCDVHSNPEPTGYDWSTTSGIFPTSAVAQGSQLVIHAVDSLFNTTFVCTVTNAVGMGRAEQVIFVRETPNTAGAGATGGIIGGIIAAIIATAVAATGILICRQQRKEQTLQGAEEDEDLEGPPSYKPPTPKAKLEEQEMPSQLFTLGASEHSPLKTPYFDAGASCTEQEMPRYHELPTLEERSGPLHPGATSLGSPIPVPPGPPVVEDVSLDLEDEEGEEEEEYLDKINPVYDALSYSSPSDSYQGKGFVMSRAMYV
Briefly: FCM, CHO-K1 transient.
Description: as §3, §4

B1: Nec1-554-1 (antibody, human IgG1, V domains shown)
VH: EVQLVESGGGLVKPGGSLRLSCAASGFTFSSYNMNWVRQAPGKGLEWVSSISSSSSYIYYADSVKGRFTISRDNAKNSLYLQMNSLRAEDTAVYYCARDYYGSGTYYLFDYWGQGTLVTVSS
VL: EIVLTQSPDFQSVTPKEKVTITCRASQSIGSSLHWYQQKPDQSPKLLIKYASQSFSGVPSRFSGSGSGTDFTLTINSLEAEDAAAYYCHQSRSLPITFGQGTRLEIK
notes: human IgG1/k; also called Nec1-554-1 SP3
With B1, the median fluorescence ratio worked out at 38.7 ratio in test [1]; 44.2 ratio in test [2]; 51.5 ratio in test [3]; 43 ratio in test [5]; 14.8 ratio in test [6]. The binding result in test [4] is reported as “no binding (tested: ratio below 2 = no reactivity)”.

These data come from patent US20090142346A1 (Takeda / Millennium, published 2009).
